Holding throughout (experiment): BLI; biotinylated Avi-tag-ZIgE-SpyCatcher loaded on streptavidin Octet tips (2.5 ug/ml, 60 s); IgE as analyte in PBST with 30 mg/ml skimmed milk; 300 s association, 400 s dissociation; 1:1 binding model assuming only partial dissociation; mean of three IgE concentrations
A general note: In BLI a coated tip is dipped into the sample, and binding shifts an interference pattern.

For test [1], the target named is Avi-tag-ZIgE^44-SpyCatcher.
The target in test [2] is Avi-tag-ZIgE^wild-type-SpyCatcher.
Test [3] has as its target Avi-tag-ZIgE^consensus-SpyCatcher.
The target in test [4] is Avi-tag-ZIgE^33-SpyCatcher.

With “IgE (native human monoclonal, Abcam ab65866) (antibody)”, the Kd was found to be 4.8 µM in test [1], 7.3 µM in test [2], 0.61 µM in test [3] and 2.1 µM in test [4].

As usually defined, the Kd is the free concentration of one partner at which half of the binding sites on the other are occupied at equilibrium, for simple one-to-one binding.
